The values that follow come from publication doi:10.1101/2022.07.14.499993 (bioRxiv, 2022).

The target in assay [1] is T1, IL-11/IL-11Rα fusion (interleukin and receptor connected with a (GGGGS)3 linker) (UniProt Q14626 113-318; P20809 23-199).
T1 chain: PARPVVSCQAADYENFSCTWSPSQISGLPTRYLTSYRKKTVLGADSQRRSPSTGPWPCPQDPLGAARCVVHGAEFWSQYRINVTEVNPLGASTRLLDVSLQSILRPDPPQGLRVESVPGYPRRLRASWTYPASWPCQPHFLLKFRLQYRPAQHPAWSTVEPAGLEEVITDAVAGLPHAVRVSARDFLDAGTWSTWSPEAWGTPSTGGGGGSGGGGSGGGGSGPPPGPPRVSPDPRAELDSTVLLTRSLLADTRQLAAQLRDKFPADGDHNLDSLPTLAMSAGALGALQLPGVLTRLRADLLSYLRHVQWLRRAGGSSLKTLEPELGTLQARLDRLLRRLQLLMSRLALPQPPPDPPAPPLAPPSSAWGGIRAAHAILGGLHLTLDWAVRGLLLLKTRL
Nature of the assay: ITC. (ITC needs no label: the signal is the heat of the interaction.)

The target of assay [2] is IL-6/IL-6Rα fusion (interleukin and receptor connected with a (GGGGS)3 linker) (UniProt P08887 114-320; P05231 30-212). Nature of the assay: ITC.
Assay [3] deals with T2, IL-11 receptor α (amino acids 113-318), the receptor part of the IL-11/IL-11Rα fusion (UniProt Q14626 113-318).
T2 sequence (looked up): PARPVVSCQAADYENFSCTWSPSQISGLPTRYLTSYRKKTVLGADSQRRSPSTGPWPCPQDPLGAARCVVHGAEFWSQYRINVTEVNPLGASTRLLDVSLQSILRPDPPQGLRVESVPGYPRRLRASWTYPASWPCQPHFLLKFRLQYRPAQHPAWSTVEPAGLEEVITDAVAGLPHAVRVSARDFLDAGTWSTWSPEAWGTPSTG
Nature of the assay: HDX-MS.

The target of assay [4] is T3, IL-11 receptor α, fusion protein with the Fc domain of human IgG1 (UniProt Q14626 24-370).
T3 sequence (looked up): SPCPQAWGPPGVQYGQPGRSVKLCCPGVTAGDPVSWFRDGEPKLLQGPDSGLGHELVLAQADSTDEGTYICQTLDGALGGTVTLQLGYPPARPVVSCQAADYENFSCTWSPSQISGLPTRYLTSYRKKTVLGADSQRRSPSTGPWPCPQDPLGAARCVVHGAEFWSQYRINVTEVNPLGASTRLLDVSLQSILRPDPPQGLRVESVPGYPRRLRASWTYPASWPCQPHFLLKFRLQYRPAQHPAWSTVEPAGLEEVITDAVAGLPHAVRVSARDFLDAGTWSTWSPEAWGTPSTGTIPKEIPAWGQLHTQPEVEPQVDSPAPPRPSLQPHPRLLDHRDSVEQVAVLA
Nature of the assay: SPR. For orientation: SPR reads the build-up and loss of mass on a sensor chip optically.

B1: human glycoprotein 130 (amino acids 24-618) (receptor, UniProt P40189 24-618, looked up)
chain: LLDPCGYISPESPVVQLHSNFTAVCVLKEKCMDYFHVNANYIVWKTNHFTIPKEQYTIINRTASSVTFTDIASLNIQLTCNILTFGQLEQNVYGITIISGLPPEKPKNLSCIVNEGKKMRCEWDGGRETHLETNFTLKSEWATHKFADCKAKRDTPTSCTVDYSTVYFVNIEVWVEAENALGKVTSDHINFDPVYKVKPNPPHNLSVINSEELSSILKLTWTNPSIKSVIILKYNIQYRTKDASTWSQIPPEDTASTRSSFTVQDLKPFTEYVFRIRCMKEDGKGYWSDWSEEASGITYEDRPSKAPSFWYKIDPSHTQGYRTVQLVWKTLPPFEANGKILDYEVTLTRWKSHLQNYTVNATKLTVNLTNDRYLATLTVRNLVGKSDAAVLTIPACDFQATHPVMDLKAFPKDNMLWVEWTTPRESVKKYILEWCVLSDKAPCITDWQQEDGTVHRTYLRGNLAESKCYLITVTPVYADGPGSPESIKAYLKQAPPSKGPTVRTKKVGKNEAVLEWDQLPVDVQNGFIRNYTIFYRTIIGNETAVNVDSSHTEYTLSSLTSDTLYMVRMAAYTDEGGKDGPEFTFTTPKFAQGEI
Turning to B1, the dH in assay [1] is -12.2 ± 0.239 kcal/mol; in assay [2], -6.69 ± 0.239 kcal/mol.

B2: Interleukin-11 (amino acids 23-199), the interleukin part of the IL-11/IL-11Rα fusion (domain or fragment, UniProt P20809 23-199, looked up)
chain: GPPPGPPRVSPDPRAELDSTVLLTRSLLADTRQLAAQLRDKFPADGDHNLDSLPTLAMSAGALGALQLPGVLTRLRADLLSYLRHVQWLRRAGGSSLKTLEPELGTLQARLDRLLRRLQLLMSRLALPQPPPDPPAPPLAPPSSAWGGIRAAHAILGGLHLTLDWAVRGLLLLKTRL
Turning to B2, the binding result in assay [3] is “binds”.

B3: Interleukin-11 (ligand, UniProt P20809 22-199, looked up)
chain: PGPPPGPPRVSPDPRAELDSTVLLTRSLLADTRQLAAQLRDKFPADGDHNLDSLPTLAMSAGALGALQLPGVLTRLRADLLSYLRHVQWLRRAGGSSLKTLEPELGTLQARLDRLLRRLQLLMSRLALPQPPPDPPAPPLAPPSSAWGGIRAAHAILGGLHLTLDWAVRGLLLLKTRL
Regarding B3, the dH in assay [4] was 11.2 ± 0.717 kcal/mol.
